The results in this text go back to PMC8118686, “Identification of a RAD52 Inhibitor Inducing Synthetic Lethality in BRCA2-Deficient Cancer Cells” (Frontiers in Pharmacology, 2021).

The data set concerns the molecule itself. Description: cross-linking; called EMSA by the paper: 1 uM 6His-RAD52 in 25 mM HEPES pH 7.5, 1 mM DTT, 10 mM MgCl2, 150 mM NaCl, 0.1 mg/ml BSA, 37 °C; with or without 400 uM 50-nt ssDNA oligo and 100 uM C791-0064; 0.1% glutaraldehyde 3 min; 4-20% SDS-PAGE, Western blot with anti-Histag. For orientation: A gel shift assay detects complexes by their altered migration in electrophoresis.

B1: Human 6His-RAD52 protein (natural protein, UniProt P43351 1-418, looked up)
chain: MSGTEEAILGGRDSHPAAGGGSVLCFGQCQYTAEEYQAIQKALRQRLGPEYISSRMAGGGQKVCYIEGHRVINLANEMFGYNGWAHSITQQNVDFVDLNNGKFYVGVCAFVRVQLKDGSYHEDVGYGVSEGLKSKALSLEKARKEAVTDGLKRALRSFGNALGNCILDKDYLRSLNKLPRQLPLEVDLTKAKRQDLEPSVEEARYNSCRPNMALGHPQLQQVTSPSRPSHAVIPADQDCSSRSLSSSAVESEATHQRKLRQKQLQQQFRERMEKQQVRVSTPSAEKSEAAPPAPPVTHSTPVTVSEPLLEKDFLAGVTQELIKTLEDNSEKWAVTPDAGDGVVKPSSRADPAQTSDTLALNNQMVTQNRTPHSVCHQKPQAKSGSWDLQTYSADQRTTGNWESHRKSQDMKKRKYDPS
notes: RAD52, human; The size of the oligomer is not measured here; heptamer is only cited
Take B1: the binding result was “binds”.
